Laboratory results as given in the supplement of paper PMC6757056.
± gives the standard deviation of the averaged measurements.

B1: library; a variant is named by its letters at N, in order (parent)
chain: GCUGUCACCGGUGCUUGGUACGUUAUAUUCAGCCGGUCUGAUGAGUCUNNNNNNAGACGAAACAGC

Assays:
(6R,S)-folinic acid [1] = variants of: B1; assay: normalized RNA/DNA level without ligand (relative to sTRSVctl = 100) (log10 (% of sTRSVctl)); HEK293T overexpressing SLC46A1; higher = less ribozyme self-cleavage, higher mRNA level; settings: without (6R,S)-folinic acid; ligand present: no
Method in brief: (§1)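 Ribozyme switch library plasmids with mCherry reporters (eGFP in certain ligand experiments) went into HEK293T cells at 4 µg per 6-well well. Where ligand was used, it was applied 1 h before transfection, and total RNA was extracted with EDTA 72 h later for reverse transcription, amplification, barcoding and sequencing. RNA level is the RNA-to-DNA read ratio normalized to a spiked-in non-cleaving sequence or to the leading sequences, then scaled and log-transformed. Scaling was ×100 with log10, the leading set comprised 25 sequences, and the cutoff was ≥100 DNA reads.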

(6R,S)-folinic acid [2] = variants of: B1; assay: normalized RNA/DNA level with ligand (relative to sTRSVctl = 100) (log10 (% of sTRSVctl)); HEK293T overexpressing SLC46A1; ligand concentration (+) RNA-Seq: 6 mM; higher = less ribozyme self-cleavage, higher mRNA level; settings: with (6R,S)-folinic acid; ligand present: yes
Method in brief: as §1

| Variant | normalized RNA/DNA level without ligand (log10) ((6R,S)-folinic acid [1]) | normalized RNA/DNA level with ligand (log10) ((6R,S)-folinic acid [2]) |
| --- | --- | --- |
| AGGCCC | 2.068 ± 0.0036 | 2.03 ± 0.056 |
| CGGCCG | 2.038 ± 0.015 | 2.03 ± 0.038 |
| GGGCCG | 2.091 ± 0.018 | 2.08 ± 0.047 |
| UGGCCG | 2.01 ± 0.036 | 2.03 ± 0.046 |
| AGGCCG | 2.039 ± 0.017 | 2.02 ± 0.039 |
| CGGCCU | 2.0767 ± 0.00028 | 2.06 ± 0.068 |
| GGGCCU | 2.098 ± 0.0088 | 2.08 ± 0.036 |
| UGGCCU | 2.043 ± 0.014 | 2.03 ± 0.024 |
| AGGCCU | 2.07 ± 0.031 | 2.06 ± 0.0088 |
| CGGCGA | 2.103 ± 0.016 | 2.09 ± 0.026 |
| GGGCGA | 2.089 ± 0.0043 | 2.1 ± 0.018 |
| UGGCGA | 1.98 ± 0.0056 | 2.067 ± 0.0097 |
| AGGCGA | 2.0336 ± 0.00079 | 2.06 ± 0.023 |
| CGGCGC | 2.0778 ± 0.0006 | 2.05 ± 0.029 |
| GGGCGC | 2.011 ± 0.016 | 2.04 ± 0.048 |
| UGGCGC | 2.08 ± 0.027 | 2.05 ± 0.055 |
| AGGCGC | 2.057 ± 0.015 | 2.03 ± 0.026 |
| CGGCGG | 1.968 ± 0.0051 | 2.04 ± 0.041 |
| UGGCGG | 1.8196 ± 0.0011 | 1.99 ± 0.056 |
| AGGCGG | 2.0398 ± 0.0017 | 2.044 ± 0.01 |

| Variant | normalized RNA/DNA level without ligand (log10) ((6R,S)-folinic acid [1]) | normalized RNA/DNA level with ligand (log10) ((6R,S)-folinic acid [2]) |
| --- | --- | --- |
| CGGCGU | 2.05 ± 0.027 | 2.02 ± 0.046 |
| GGGCGU | 2.103 ± 0.0047 | 2.08 ± 0.05 |
| UGGCGU | 1.99 ± 0.031 | 2.03 ± 0.05 |
| AGGCGU | 2.02 ± 0.025 | 2.048 ± 0.0022 |
| CGGCUA | 2.11 ± 0.027 | 2.067 ± 0.011 |
| GGGCUA | 2.048 ± 0.0023 | 2.05 ± 0.033 |
| UGGCUA | 2.03 ± 0.013 | 2.05 ± 0.028 |
| GGGCUC | 2.1006 ± 0.0021 | 2.1 ± 0.021 |
| UGGCUC | 2.07 ± 0.024 | 2.04 ± 0.023 |
| CGGCUG | 2.0746 ± 0.002 | 2.04 ± 0.027 |
| GGGCUG | 2.044 ± 0.0043 | 2.03 ± 0.046 |
| UGGCUG | 2.066 ± 0.0012 | 2.09 ± 0.023 |
| AGGCUG | 2.0598 ± 0.0012 | 2.04 ± 0.0063 |
| CGGCUU | 2.04 ± 0.04 | 2.02 ± 0.022 |
| GGGCUU | 2.143 ± 0.0064 | 2.1 ± 0.027 |
| UGGCUU | 2.021 ± 0.00062 | 2.043 ± 0.0081 |
| AGGCUU | 2.03 ± 0.027 | 2.04 ± 0.041 |
| UGGGAA | 1.8778 ± 0.0006 | 1.98 ± 0.028 |
| AGGGAA | 1.965 ± 0.0039 | 2.01 ± 0.025 |
| GGGGAC | 1.995 ± 0.013 | 2.029 ± 0.012 |

| Variant | normalized RNA/DNA level without ligand (log10) ((6R,S)-folinic acid [1]) | normalized RNA/DNA level with ligand (log10) ((6R,S)-folinic acid [2]) |
| --- | --- | --- |
| UGGGAC | 1.99 ± 0.03 | 2.015 ± 0.0073 |
| CGGGAG | 1.932 ± 0.0051 | 2 ± 0.023 |
| GGGGAG | 1.9915 ± 0.00084 | 2.04 ± 0.043 |
| GGGGAU | 2.002 ± 0.0074 | 2.03 ± 0.05 |
| AGGGAU | 1.949 ± 0.0057 | 1.98 ± 0.031 |
| CGGGCA | 2.059 ± 0.0067 | 2.04 ± 0.0044 |
| GGGGCA | 2.054 ± 0.0064 | 2.02 ± 0.025 |
| UGGGCA | 1.962 ± 0.0051 | 2.01 ± 0.032 |
| AGGGCA | 2.033 ± 0.02 | 2.03 ± 0.042 |
| CGGGCC | 2.072 ± 0.0092 | 2.035 ± 0.019 |
| AGGGCC | 2.07 ± 0.023 | 2.06 ± 0.06 |
| CGGGCG | 1.993 ± 0.005 | 2.04 ± 0.043 |
| GGGGCG | 2.073 ± 0.016 | 2.06 ± 0.045 |
| AGGGCG | 1.962 ± 0.008 | 2.02 ± 0.027 |
| CGGGCU | 2.09 ± 0.021 | 2.06 ± 0.03 |
| GGGGCU | 2.079 ± 0.017 | 2.055 ± 0.0086 |
| UGGGCU | 2.06 ± 0.024 | 2.04 ± 0.025 |
| AGGGCU | 2.022 ± 0.0078 | 2.05 ± 0.024 |
